Target: T1, CD40hfc (R&Dsystems, USA) (human, UniProt P25942 21-193)
T1 construct: Bought reagent, amine-coupled to the Biacore chip; also called immobilized CD40 receptor; not shown: Fc part of the bought CD40hfc
Assay: SPR, Biacore 3000; CD40hfc amine-coupled to chip, antibody as analyte; 37 C, pH 7.3
Experimental: The affinity measures of purified antibodies by surface plasmon resonance using the Biacore 3000 instrument was performed according to manufacturer's protocols.
The CD40hfc (R&Dsystems, USA) was immobilized to the BIAcore sensorchip, CMS, using conventional amine coupling. The anti-CD40 antibodies of the invention, (serially diluted 1/3 from 1-0.012 nM) were analysed for binding in HBS-P (GE, BR-1003-68) at a flow rate of 30 μl/min at 37° C. and pH 7.3. The association was followed for 3 minutes and the dissociation for 10 minutes. Regeneration was performed twice using 50 mM NaOH for 30 seconds. The kinetic parameters and the affinity constants were calculated using BIAevaluation 4.1 software.

T1 sequence (P25942 21-193): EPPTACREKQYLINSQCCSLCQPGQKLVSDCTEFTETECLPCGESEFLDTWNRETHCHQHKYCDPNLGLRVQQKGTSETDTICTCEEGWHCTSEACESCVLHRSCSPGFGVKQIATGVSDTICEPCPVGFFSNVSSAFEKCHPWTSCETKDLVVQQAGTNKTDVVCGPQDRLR

Row | Binder | koff
1 | Antibody clone F6 (antibody, human IgG1, lambda, V domains shown, Tested as purified antibody) VH: EVQLLESGGGLVQPGGSLRLSCAASGFTFSTYGMHWVRQAPGKGLEWLSYISGGSSYIFYADSVRGRFTISRDNSENALYLQMNSLRAEDTAVYYCARILRGGSGMDLWGQGTLVTVSS VL: QSVLTQPPSASGTPGQRVTISCTGSSSNIGAGYDVYWYQQLPGTAPKLLIYRNINRPSGVPDRFSGSKSGTSASLAISGLRSEDEADYYCAAWDGSLLGLVFGGGTKLTVLG | 0.00032 s⁻¹
2 | Antibody clone F9 (antibody, human IgG1, lambda, V domains shown, Tested as purified antibody) VH: EVQLLESGGGLVQPGGSLRLSCAASGFTFSTYGMHWVRQAPGKGLEWLSYISGGSSYIFYADSVRGRFTISRDNSENALYLQMNSLRAEDTAVYYCARILRGGSGMDLWGQGTLVTVSS VL: QSVLTQPPSASGTPGQRVTISCTGSSSNIGAGYGVYWYQQLPGTAPKLLIYGNINRPSGVPDRFSGSKSGTSASLAISGLRSEDEADYYCAAWDGTLTGLLFGGGTKLTVLG | 0.00012 s⁻¹

From US20170240642A1 (ALLIGATOR BIOSCIENCE, published 2017)
